Laboratory results published in patent US20220275098A1.

Target: CD30 (analyte in SPR) (UniProt P28908)
Assay: SPR, 25° C. pH 7.4, scFv captured on chip, CD30 as analyte, average value

Chain of CD30 (analyte in SPR) (P28908 19-379 limits assumed): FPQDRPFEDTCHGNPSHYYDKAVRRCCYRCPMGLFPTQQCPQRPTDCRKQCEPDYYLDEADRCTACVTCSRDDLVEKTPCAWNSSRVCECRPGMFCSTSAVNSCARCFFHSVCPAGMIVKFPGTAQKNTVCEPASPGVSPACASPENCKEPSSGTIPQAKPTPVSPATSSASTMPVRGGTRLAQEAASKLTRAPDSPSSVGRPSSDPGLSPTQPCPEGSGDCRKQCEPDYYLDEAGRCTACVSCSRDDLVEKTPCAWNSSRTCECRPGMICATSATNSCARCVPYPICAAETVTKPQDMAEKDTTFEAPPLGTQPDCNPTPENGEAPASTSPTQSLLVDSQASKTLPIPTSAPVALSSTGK

Kd: 800 pM
B1: anti-CD30 clone 52-2 scFv (scFv, part only; not given: Linker, domain order, tag, V domains shown, not shown: another chain or arm of the molecule; small tags and cut ends)
VH: EVQLVESGGGLVQPGGSLRLSCAASGFTFSSYYMHWVRQAPGKGLEWVSAISWSGGSTYYADSVKGRFTISRDNSKNTLYLQMNSLRAEDTAVYYCARDRFMPFIPNTLGFDVWGQGTLVTVSS
VL: DIQMTQSPSSLSASVGDRVTITCQASQDISNYLNWYQQKPGKAPKLLIYVASNLETGVPSRFSGSGSGTDFTFTISSLQPEDIATYYCQQDADVPLTFGQGTKVEIK
